This passage reports fold affinity against native CpA results from article PMC11145777.

This experiment addresses native H3 (human (endogenous in HeLa)) (UniProt P68431). Put plainly: co-IP; native (unfixed) ChIP on mono-nucleosomes: native CpA from untransfected HeLa, GFP-CpA and HA-CpA from transfected HeLa, Western for H1.5 (three antibodies) and H2A; H3 ChIP done sequentially after the native CpA ChIP.

As for “linker histone H1.5 (from UniProt P16401 1-226) (natural protein)”, the fold affinity against native CpA is 13 fold.
